From IntAct's records for PubMed 31663849

B1: Secretagogin (Homo sapiens), O76038 (parent)
chain: MDSSREPTLGRLDAAGFWQVWQRFDADEKGYIEEKELDAFFLHMLMKLGTDDTVMKANLHKVKQQFMTTQDASKDGRIRMKELAGMFLSEDENFLLLFRRENPLDSSVEFMQIWRKYDADSSGFISAAELRNFLRDLFLHHKKAISEAKLEEYTGTMMKIFDRNKDGRLDLNDLARILALQENFLLQFKMDACSTEERKRDFEKIFAYYDVSKTGALEGPEVDGFVKDMMELVQPSISGVDLDKFREILLRHCDVNKDGKIQKSELALCLGLKINP

Variants of: B1
Conditions: with snp25_mouse Snap25, P60879
Chain of snp25_mouse Snap25, P60879 (P60879 whole entry, looked up): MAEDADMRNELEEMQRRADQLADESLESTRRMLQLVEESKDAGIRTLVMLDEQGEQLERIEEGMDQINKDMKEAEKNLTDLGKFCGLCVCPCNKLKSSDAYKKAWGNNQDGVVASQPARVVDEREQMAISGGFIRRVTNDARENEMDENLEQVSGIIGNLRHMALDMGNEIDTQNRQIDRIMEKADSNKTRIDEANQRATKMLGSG

Row | Variant | effect of a mutation on the interaction
1 | MDSSREPTLGRLDAAGFWQVWQRFDADEKGYIEEKELDAFFLHMLMKLGTDDTVMKANLHKVKQQFMTTQDASKDGHIRMKELAGMFLSEDENFLLLFRRENPLDSSVEFMQIWRKYDADSSGFISAAELRNFLRDLFLHHKKAISEAKLEEYTGTMMKIFDRNKDGRLDLNDLARILALQENFLLQFKMDACSTEERKRDFEKIFAYYDVSKTGALEGPEVDGFVKDMMELVQPSISGVDLDKFREILLRHCDVNKDGKIQKSELALCLGLKINP [R77H] | with no effect
